In patent publication EP3502685A1:

Biological target: T. spiralis E/S antigen

Row | Binder | detection limit
1 | Anti-[TRISP][C9] (antibody, V domains shown) VH: AVTLDESGGGLQTPGGALSLVCKASGFSISSYSMQWVRQAPGKGLEWVAGIYYDGNTWYAPAVKGRATISRDNGQSTVRLRLNNLRAEDTATYFCAKYAGGYSIDAWGHGTEVIVSS VL: ALTQPSSVSANPGETVKITCSGSSGSYGWYQQKSPGSGPVTVIYYNDKRPSDIPSRFSGSASGSTATLTITGVQAEDEAVYFCGGYDSSTYVGIFGAGTTLTVL | 6 ng/mL
2 | Anti-[TRISP][B7] (antibody, V domains shown) VH: AVTLDESGGGLQTPRGGLSLVCKASGYTFSSHNMAWVRQAPGKGLEFVAGISNTGSFTLYGAAVKGRATISRDNGQSTVRLQLNNLRAEDTGTYYCAKHAGVGLYSIDAWGHGTEVIVSS VL: ALTQPSSVSANLGGTVKITCSGGTSDYGWYQQKAPGSAPVTLIYDNTNRPSDIPSRFSGSLSGSTNTLTITGVQAEDEAVYFCGSADRTYAGVFGAGTTLTVL | 6 ng/mL
